# Assay results from patent publication US20210371461.
# System: MePEG2-IEGR (TFA salt)
Substance,Kcat (Vmax/[FXa]),"luminescence signal (RLU) from substrate cleavage, 80 nM enzyme","luminescence signal (RLU) from substrate cleavage, 52 nM enzyme"
Factor Xa,Kcat=Vmax/[FXa]=1.05×10^14 s^-1,A concentration of 80 nm FXa yielded a signal of 1.000.000 RLU,–
thrombin,–,–,52 nM thrombin yielded ˜30.000 RLU
